Results reported in PMC8219380, “The discriminatory power of the T cell receptor” (eLife, 2021).
Several values for one entry are separate records, joined by “and”; a condition that tells them apart may be missing. Equal entries are not always repeated.

Columns and labels:
[1] = target: Tax 5H8A peptide on HLA-A*02:01 (human | HTLV-1); assay: SPR
[2] = target: Tax 1A peptide on HLA-A*02:01 (human | HTLV-1); assay: SPR
[3] = target: Tax 7T peptide on HLA-A*02:01 (human | HTLV-1); assay: SPR
[4] = target: Tax 5W peptide on HLA-A*02:01 (human | HTLV-1); assay: SPR
[5] = target: Tax 7H peptide on HLA-A*02:01 (human | HTLV-1); assay: SPR
[6] = target: Tax 4A8A peptide on HLA-A*02:01 (human | HTLV-1); assay: SPR
[7] = target: Tax 7R peptide on HLA-A*02:01 (human | HTLV-1); assay: SPR
[8] = target: Tax 8F peptide on HLA-A*02:01 (human | HTLV-1); assay: SPR
[9] = target: Tax 5H peptide on HLA-A*02:01 (human | HTLV-1); assay: SPR
[10] = target: Tax 5F peptide on HLA-A*02:01 (human | HTLV-1); assay: SPR
[11] = target: Tax 4A peptide on HLA-A*02:01 (human | HTLV-1); assay: SPR
[12] = target: Tax 6V peptide on HLA-A*02:01 (human | HTLV-1); assay: SPR
[13] = target: Tax 8A peptide on HLA-A*02:01 (human | HTLV-1); assay: SPR
[14] = target: Tax 1V peptide on HLA-A*02:01 (human | HTLV-1); assay: SPR
[15] = target: Tax 5F peptide on HLA-A*02:01 (human | HTLV-1); assay: SPR; 37°C
1G4 TCR = assay: SPR, 1G4 TCR binding to immobilised pMHC (steady state, 37°C); set-up: species or system human; conditions: Bmax fitted, read-out: KD (standard protocol)
[16] = target: NY-ESO-1 (peptide variant NYE 5F) peptide on HLA-A*02:01 (human); assay: SPR at 37°C, new method with Bmax constrained by the W6/32 standard curve; soluble, other
[17] = target: NY-ESO-1 (NYE 9V: heteroclitic variant of the wild-type NYE-ESO 157–165 9C peptide) peptide on HLA-A*02:01 (human); assay: SPR at 37°C (Biacore T200), soluble 1G4 injected over immobilised biotinylated pMHC; standard method with fitted Bmax; Figure 1A–C left column, which the legend names NYE 9V; soluble, other
[18] = tested on: CD8+ T cell blasts expressing 1G4 TCR; assay: TCR downregulation (tetramer gMFI), plate-bound pMHC + CD58; type: cell-based, human
Text: (§1) Figure 4. The T cell discriminatory power is enhanced by ligation of the receptors CD2 or LFA-1. (A) Protocol for stimulation of CD8^+ T cell blasts with plate-bound recombinant ligands. (B, C) Example dose-response curve for 1G4 T cell blasts stimulated with (B) peptides presented on major histocompatibility complex (pMHC) alone or (C) in combination with CD58 or ICAM1. (D, E) Potency derived from dose-response curves over KD showing the power function fit (D) with pMHC alone or (E) in combination with CD58 or ICAM1. (F) Comparison of the fitted discrimination power (α) and (G) fitted sensitivity ( C ). Shown are geometric means with each dot representing an independent experiment (n = 4–5). (F) In grey the result of a statistical test vs. 1 is shown (p=0.09 for pMHC, p=0.002 for CD58 and ICAM1, p=0.0002 for U87/1G4). Figure 4—source data 1. CD69 dose-response data for Figure 4. […]
(§2) For stimulation, T cells were counted, washed once to remove excess IL2, and 75,000 cells in 180–200 μl complete RMPI were dispensed per well. […] Cells were stained for flow cytometry and analysed immediately, or fixed and stored for up to 1 day. […]
(§3) Tetramers were produced in-house using refolded monomeric, biotinylated pMHC, and streptavidin-PE (Biolegend) at a 1:4 molar ratio. […] Samples were analysed using a BD X-20 flow cytometer, and data analysis was performed using FlowJo v10 (BD Biosciences).

[19] = tested on: CD8+ T cell blasts expressing 1G4 TCR; assay: TCR downregulation (tetramer gMFI), plate-bound pMHC + ICAM1; type: cell-based, human
Text: as §1, §2, §3

CXCR4 = assay: Discrimination power from published data: CXCR4; conditions: ID 21; output Voltage; n 5; ns; ref Guyon 2013
Text: The broad method was to obtain a measure of ligand potency from each study. […] If not explicitly provided, we estimated ligand potency as PX , which was defined by the concentration of ligand that produced X response. To do this, we drew a horizontal line at X on a provided dose-response graph and estimated the ligand concentration where the data intercepted the horizontal line. The disadvantage with this method is that ligand potency was estimated based on the single representative graph provided in the study.
Each study often contained or cited a study that contained estimates of KD or koff for the specific TCR/pMHC interactions used in the study. We only included studies where monomeric SPR binding data was available to avoid multimeric binding parameters (e.g. when using tetramers). However, when analysing discrimination by other non-TCR receptors, we included binding data from various methods (e.g. SPR, radio labelled ligands) provided they were monomeric measurements. The use of SPR is important for weak interactions, such as TCR/pMHC, but various methods are available for higher-affinity interactions.
The plot of potency over KD or k off was fit using linear regression on log-transformed axes. We reported the slope of the fit (i.e. the discrimination power, α), the goodness-of-fit measure ( R^2 ), and the p-value for the null hypothesis that the slope is zero (i.e. α=0 ). […]

For soluble A6 αβ TCR, the Kd [1] was 2820 µM and 2320 µM, the Kd [2] was 4.25 µM and 6.5 µM and the Kd [3] was 3.42 µM and 2.8 µM. For the same molecule, the Kd [4] was 6.08 µM and 5 µM, the Kd [5] was 45.8 µM and 67.8 µM and the Kd [6] was 194 µM and 1870 µM. For the same molecule, the Kd [7] was 11.5 µM and 21.4 µM, the Kd [8] was 37.1 µM and 60 µM and the Kd [9] was 36.2 µM and 56.1 µM. For the same molecule, the Kd [10] was 3.36 µM and 2.67 µM, the Kd [11] was 72.5 µM and 118 µM and the Kd [12] was 13.5 µM and 21.1 µM. The Kd [13] was 599 µM and 565 µM, the Kd [14] was 6.92 µM and 7.97 µM and the Kd [15] was 3 µM.

Work on “NY-ESO-1 peptide: cognate NY-ESO-1 peptide of the 1G4 TCR” yielded a Kd (1G4 TCR) of about 7 µM.

Work on 1G4 TCR yielded a Kd [16] of 1310 µM and a Kd [17] of 7 µM.

B1: CD58: soluble extracellular domain of human CD58, the ligand to CD2 (protein, UniProt P19256 29-215, looked up)
extracellular domain: FSQQIYGVVYGNVTFHVPSNVPLKEVLWKKQKDKVAELENSEFRAFSSFKNRVYLDTVSGSLTIYNLTSSDEDEYEMESPNITDTMKFFLYVLESLPSPTLTCALTNGSIEVQCMIPEHYNSHRGLIMYSWDCPMEQCKRNSTSIYFKMENDLPQKIQCTLSNPLFNTTSSIILTTCIPSSGHSRHR
modifications: extracellular domain
notes: soluble extracellular domain of human CD58, the ligand to CD2
For B1, the TCR downregulation [18] was “increased TCR downregulation”.

B2: ICAM1: human ICAM1 ECD, a ligand of LFA-1 (protein, UniProt P05362 28-480, looked up)
extracellular domain: QTSVSPSKVILPRGGSVLVTCSTSCDQPKLLGIETPLPKKELLLPGNNRKVYELSNVQEDSQPMCYSNCPDGQSTAKTFLTVYWTPERVELAPLPSWQPVGKNLTLRCQVEGGAPRANLTVVLLRGEKELKREPAVGEPAEVTTTVLVRRDHHGANFSCRTELDLRPQGLELFENTSAPYQLQTFVLPATPPQLVSPRVLEVDTQGTVVCSLDGLFPVSEAQVHLALGDQRLNPTVTYGNDSFSAKASVSVTAEDEGTQRLTCAVILGNQSQETLQTVTIYSFPAPNVILTKPEVSEGTEVTVKCEAHPRAKVTLNGVPAQPLGPRAQLLLKATPEDNGRSFSCSATLEVAGQLIHKNQTRELRVLYGPRLDERDCPGNWTWPENSQQTPMCQAWGNPLPELKCLKDGTFPLPIGESVTVTRDLEGTYLCRARSTQGEVTRKVTVNVLSPRYE
modifications: extracellular domain
For B2, the TCR downregulation [19] was “increased TCR downregulation”.

B3: CXCR4: receptor tested with Baclofen and other GABA ligands (protein, UniProt P61073 1-352, looked up)
C-X-C chemokine receptor type …: MEGISIYTSDNYTEEMGSGDYDSMKEPCFREENANFNKIFLPTIYSIIFLTGIVGNGLVILVMGYQKKLRSMTDKYRLHLSVADLLFVITLPFWAVDAVANWYFGNFLCKAVHVIYTVNLYSSVLILAFISLDRYLAIVHATNSQRPRKLLAEKVVYVGVWIPALLLTIPDFIFANVSEADDRYICDRFYPNDLWVVVFQFQHIMVGLILPGIVILSCYCIIISKLSHSKGHQKRKALKTTVILILAFFACWLPYYIGISIDSFILLEIIKQGCEFENTVHKWISITEALAFFHCCLNPILYAFLGAKFKTSAQHALTSVSRGSSLKILSKGKRGGHSSVSTESESSSFHSS
For B3, the “Power (discrimination power)” value (CXCR4) was 0.5686.
